Data published in patent US7063946B2, “Methods, reagents, kits and apparatus for protein function analysis” (Meso Scale Technologies, LLC., priority 2001, dated 2006).

Assays:
[1] = molecular target: T1, EGFR-pY1068 (SEQ ID NO: 7) (Homo sapiens, UniProt P00533); assay: Single-well 4-spot assay for multiple peptide-protein interactions; assay type: binding; settings: 4-spot plate
T1 construct: phosphotyrosine at Tyr1068 (chemical modification); purchased New England Peptide, Fitchburg Mass; host or cells: chemical synthesis
Excerpt: (§1) Four phosphopeptides and their cognate binding proteins (Table 14) were selected for an integrated assay of multiple peptide-protein interaction in 4-spot Multi-Array plates. The IkBa-24pp peptide and its binding protein, βTRCP, are described in Example 10. […] These phosphotyrosine containing peptides are recognized by different adaptor or effecter proteins of the receptor tyrosine kinase signaling pathway.
(§2) These four peptides were coupled to BSA carrier protein through cystine residue. After purification on PD-10 gel filtration columns, the peptide-BSA conjugates were then deposited on the assay domains of a 4-spot multi-array IPR plate (i.e., in one of the four exposed regions of working electrode defined by the dielectric layer) with an automated micro-dispensing system (Bio-Dot Dispenser, Bio-Dot, Irvine Calif.). […] These plates are dried then used or stored under desiccated conditions. A few hours prior to usage the plates were rehydrated and blocked with 3% BSA in PBS. […] The in vitro translated and biotin-labeled proteins were then assayed in the 4-spot multi-array IPR plates under conditions described in Example 10.

[2] = molecular target: T2, EGFR-pY1148 (SEQ ID NO: 9) (Homo sapiens, UniProt P00533); assay: as above; assay type: binding; settings: 4-spot plate
T2 construct: phosphotyrosine at Tyr1148 (chemical modification); purchased New England Peptide, Fitchburg Mass; host or cells: chemical synthesis
Excerpt: as §1, §2

[3] = molecular target: T3, IkBa peptide [SEQ ID No. 1] (Homo sapiens, UniProt P25963); assay: Phosphopeptide binding assay, peptide-BSA coated IPR plate
T3 construct: two phosphoserines in the DSGLDS motif (chemical modification); purchased New England Peptide, Fitchburg Mass; host or cells: chemical synthesis
T3 sequence (P25963 with tags, fused parts or gaps limits assumed): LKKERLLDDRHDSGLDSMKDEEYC
Excerpt: A phosphopeptide derived from the IkBa degradation motif (SEQ ID NO: 1) and a phosphopeptide derived from c-Myc (SEQ ID NO: 4) were chemically synthesized (New England Peptide, Fitchburg Mass.) with the following sequences respectively:
A maleimide pre-activated BSA (Pierce, Pittsburgh Pa.), which contains estimated 17 active maleimide groups on the protein surface, was used as the protein carrier, and was supplied as a lyophilized preparation. Coupling of the IkBa peptide (SEQ ID NO: 1) to the pre-activated BSA was carried out with 2 mg BSA (30 nmol) and 17 equivalents of the 25 residue phosphopeptide in 400 μl PBS. The reaction was terminated with 2 mM […] after incubation at room temperature for 30 minutes. The peptide:BSA conjugate was then purified on PD-10 gel filtration column to remove uncoupled peptide and analyzed with SDS PAGE to monitor the coupling reaction. […] After coupling and purification, the column fractions containing the peptide:BSA conjugates were pooled and the protein concentration of the pooled samples was determined by BCA assay (Pierce, Pittsburgh Pa.). NaN3, (0.02%) was added to the final peptide:BSA conjugate sample for long term storage at 4° C. […]
Two βTRCP genes, βTRCP1 and βTRCP2, are present in the human genome on chromosome 5 and 10, respectively. […] The ECL signals were measured using an imaging plate reader (IPR).

IkBa-24pp (SEQ ID NO: 1) = molecular target: T4, IkBa-24pp (SEQ ID NO: 1) (Homo sapiens, UniProt P25963); assay: Single-well 4-spot assay for multiple peptide-protein interactions; assay type: binding; settings: for ECL signal, spot 1 IkBa-24pp: 4-spot plate
T4 construct: two phosphoserines in the DSGLDS motif (chemical modification); purchased New England Peptide, Fitchburg Mass; host or cells: chemical synthesis
Excerpt: Four phosphopeptides and their cognate binding proteins (Table 14) were selected for an integrated assay of multiple peptide-protein interaction in 4-spot Multi-Array plates. The IkBa-24pp peptide and its binding protein, βTRCP, are described in Example 10. The remaining peptides are derived from the carboxyl terminus of the EGF receptor. These phosphotyrosine containing peptides are recognized by different adaptor or effecter proteins of the receptor tyrosine kinase signaling pathway.
These four peptides were coupled to BSA carrier protein through cystine residue. After purification on PD-10 gel filtration columns, the peptide-BSA conjugates were then deposited on the assay domains of a 4-spot multi-array IPR plate (i.e., in one of the four exposed regions of working electrode defined by the dielectric layer) with an automated micro-dispensing system (Bio-Dot Dispenser, Bio-Dot, Irvine Calif.). Typically about 120 fmole of peptide:BSA conjugate in 0.25 μl was deposited on each spot of a 4-spot multi-array IPR plate. These plates are dried then used or stored under desiccated conditions. A few hours prior to usage the plates were rehydrated and blocked with 3% BSA in PBS. EST clones encoding βTRCP1 (3491843), βTRCP2 (4237375), mCBP (3872466) Grb2 (4398016) and PLCγ (4419252) (Incyte, Palo Alto, Calif.), were isolated using a QIA-prep column (QIAGEN, Los Angeles, Calif.) and used to program protein expression in a Quick coupled SP6 TnT reaction supplemented with Transcend biotin-tRNA label following the manufactures protocol (Promega, Madison Wis.). The in vitro translated and biotin-labeled proteins were then assayed in the 4-spot multi-array IPR plates under conditions described in Example 10. […] By contrast spots 2–4 in the same wells gave low ECL signals. Thus, in this assay format, each peptide not only serves as the capture agent for assaying specific interaction with its binding protein, but also at the same time serves as a control for other peptide-protein interaction to be determined in the same well. […]

In the case of “3872466: IMAGE clone protein: mCBP [compound 3872466]”, the “ECL signal, spot 3 EGFR-pY1068” value [1] is reported as 126, the “ECL signal, spot 2 EGFR-pY1148” value [2] is reported as 278 and the “Average ECL signal, IkBa peptide [SEQ ID No. 1]” value [3] is reported as 371. The “ECL signal, spot 1 IkBa-24pp” value (IkBa-24pp (SEQ ID NO: 1)) was 446.
With “3491843: IMAGE clone protein: βTRCP1 [compound 3491843]” the “ECL signal, spot 3 EGFR-pY1068” value [1] was 24, the “ECL signal, spot 2 EGFR-pY1148” value [2] was 36 and the “Average ECL signal, IkBa peptide [SEQ ID No. 1]” value [3] was 40879. The “ECL signal, spot 1 IkBa-24pp” value (IkBa-24pp (SEQ ID NO: 1)) was 2466 and the “fold higher ECL signal from spot 1 than with TnT mixtures containing no exogenous DNA” value (IkBa-24pp (SEQ ID NO: 1); spot 1 (IkBa-24pp-BSA conjugate)) was 100 fold.
